Test results reported in the supplement of paper PMC6757056.
± gives the standard deviation of the averaged measurements.

B1: library; a variant is named by its letters at N, in order (parent)
chain: GCUGUCACCGGUGUAUUACCCUAGUGGUCGACCGGUCUGAUGAGUCUNNNNNNAGACGAAACAGC

Experiments:
hypoxanthine [1] = variants of: B1; test: normalized RNA/DNA level with ligand (relative to sTRSVctl = 100) (log10 (% of sTRSVctl)); ligand: hypoxanthine (xanthine aptamer); higher = less ribozyme self-cleavage, higher mRNA level; conditions: ligand concentration (+) RNA-Seq: 5 mM, HEK293T, reporter: mCherry (pCS4076), ligand present: yes
Method in brief: (§1)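 Library plasmids encoding reporter-linked ribozyme switches (mCherry, or eGFP for some folinic acid experiments) were transfected into HEK293T at 4 µg per 6-well well. Ligand, when used, was added 1 h before transfection. Total RNA was extracted with EDTA 72 h later, then reverse-transcribed, amplified, barcoded and sequenced. RNA level was RNA reads over DNA reads, divided by a spiked-in non-cleaving control (or the top 25 sequences), ×100, log10; only sequences with ≥100 DNA reads were kept.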

hypoxanthine [2] = variants of: B1; test: normalized RNA/DNA level without ligand (relative to sTRSVctl = 100) (log10 (% of sTRSVctl)); ligand: hypoxanthine (xanthine aptamer); higher = less ribozyme self-cleavage, higher mRNA level; conditions: HEK293T, reporter: mCherry (pCS4076), ligand present: no
Method in brief: as §1

Variant	normalized RNA/DNA level with ligand (log10) (hypoxanthine [1])	normalized RNA/DNA level without ligand (log10) (hypoxanthine [2])
UUCCUC	1.97 ± 0.038	2.04 ± 0.025
UGCCAA	1.906 ± 0.018	1.84 ± 0.021
UAACAU	1.919 ± 0.013	1.78 ± 0.024
UUUGCA	1.94 ± 0.039	1.89 ± 0.033
UGCGUC	1.989 ± 0.0044	2.031 ± 0.0052
AUGCUU	1.93 ± 0.088	1.861 ± 0.018
GCACGU	1.91 ± 0.053	1.73 ± 0.032
CGUGGC	1.901 ± 0.0033	1.883 ± 0.013
ACACCU	1.952 ± 0.016	1.84 ± 0.024
UCUCAA	1.92 ± 0.055	1.679 ± 0.0047
UCUCAC	2 ± 0.055	1.77 ± 0.047
UGCAAU	1.9506 ± 0.00045	1.807 ± 0.01
CAUUCA	1.92 ± 0.04	1.78 ± 0.029
UGGCCU	1.98 ± 0.043	2.008 ± 0.0053
UCCAGA	1.93 ± 0.054	1.78 ± 0.048
UUCGUU	1.94 ± 0.11	1.84 ± 0.054
CAUGUC	1.91 ± 0.056	1.92 ± 0.042
UUGGCC	1.97 ± 0.066	2.013 ± 0.0026
CACCGU	1.93 ± 0.064	1.892 ± 0.011
GUCGUA	1.91 ± 0.088	1.79 ± 0.073
CGCUUG	1.91 ± 0.07	1.93 ± 0.076
UUAAGC	1.94 ± 0.023	1.837 ± 0.0055
GACGGU	1.95 ± 0.036	1.797 ± 0.0024

Variant	normalized RNA/DNA level with ligand (log10) (hypoxanthine [1])	normalized RNA/DNA level without ligand (log10) (hypoxanthine [2])
GCAAGC	1.89 ± 0.074	1.575 ± 0.0013
GUAUCC	1.96 ± 0.025	1.86 ± 0.043
AAGCGC	1.89 ± 0.051	1.6 ± 0.039
CCAAUC	1.98 ± 0.032	1.94 ± 0.044
AACCCC	1.97 ± 0.082	1.87 ± 0.043
GGCGCG	1.95 ± 0.028	1.81 ± 0.0088
UAGAGC	1.908 ± 0.017	1.706 ± 0.0082
UGAGAC	1.89 ± 0.024	1.83 ± 0.057
UGGAAG	1.871 ± 0.018	1.556 ± 0.01
AAGUCC	1.893 ± 0.016	1.81 ± 0.072
CAACAG	1.92 ± 0.021	1.717 ± 0.013
AAGAAC	1.9 ± 0.032	1.7418 ± 0.00032
GCCACA	1.958 ± 0.0033	1.871 ± 0.0054
CUCCGC	1.967 ± 0.019	1.95 ± 0.026
CUUGGU	1.98 ± 0.051	1.95 ± 0.04
UAUGCA	1.88 ± 0.022	1.83 ± 0.019
UAUGCG	1.8828 ± 0.0017	1.67 ± 0.037
UCUUGU	1.91 ± 0.1	1.667 ± 0.0039
UGAUCU	2.022 ± 0.0077	1.939 ± 0.013
UGAGGG	1.87 ± 0.036	1.514 ± 0.0058
ACUUUU	1.92 ± 0.044	1.868 ± 0.012
CAGUGC	1.96 ± 0.0096	1.814 ± 0.0038
CGAAGU	1.93 ± 0.022	1.86 ± 0.046

Variant	normalized RNA/DNA level with ligand (log10) (hypoxanthine [1])	normalized RNA/DNA level without ligand (log10) (hypoxanthine [2])
CCCGCG	1.9 ± 0.029	1.84 ± 0.019
UAACUC	2.009 ± 0.013	1.97 ± 0.04
CGCAGU	1.938 ± 0.0028	1.86 ± 0.026
UUUUAA	1.931 ± 0.0049	1.85 ± 0.056
CUCACA	1.911 ± 0.016	1.83 ± 0.021
CAGUUA	1.87 ± 0.055	1.49 ± 0.035
UGUACG	1.929 ± 0.01	1.83 ± 0.044
UCAGAC	1.964 ± 0.0055	1.92 ± 0.042
GCCGGG	1.94 ± 0.023	1.87 ± 0.06
UCUUAA	1.87 ± 0.047	1.83 ± 0.041
UCUUAU	1.9468 ± 0.0014	1.84 ± 0.092
AAGCCU	1.96 ± 0.02	1.85 ± 0.059
AUUGCC	1.95 ± 0.021	1.85 ± 0.021
CAGGUC	1.94 ± 0.015	1.874 ± 0.011
GCACAU	1.96 ± 0.033	1.76 ± 0.037
GUACGA	1.91 ± 0.04	1.686 ± 0.0047
GCAGAC	1.89 ± 0.021	1.549 ± 0.0076
CUGAUG	1.936 ± 0.0068	1.646 ± 0.0062
AUCACA	1.908 ± 0.0044	1.84 ± 0.023
CUGAGU	1.94 ± 0.073	1.839 ± 0.0049
UUCUUA	1.95 ± 0.014	1.883 ± 0.018
CUGGUU	2.01 ± 0.024	1.858 ± 0.0054
GACUCC	1.989 ± 0.019	1.96 ± 0.04

Variant	normalized RNA/DNA level with ligand (log10) (hypoxanthine [1])	normalized RNA/DNA level without ligand (log10) (hypoxanthine [2])
AGUGAG	1.79 ± 0.029	1.28 ± 0.096
AGAAGU	1.85 ± 0.034	1.51 ± 0.029
GAUAUC	1.91 ± 0.03	1.908 ± 0.0029
CGUUUA	1.89 ± 0.032	1.68 ± 0.013
CCCUCA	1.978 ± 0.0074	1.9723 ± 0.00098
AAAAAC	1.894 ± 0.015	1.8 ± 0.021
GCCUAC	1.954 ± 0.0075	1.757 ± 0.0057
ACGUCA	1.94 ± 0.038	1.64 ± 0.032
GCCAAU	1.95 ± 0.053	1.798 ± 0.0018
CAAUCU	2.01 ± 0.059	1.85 ± 0.042
UGCUAC	1.937 ± 0.0075	1.847 ± 0.014
CUCAAA	1.919 ± 0.0021	1.785 ± 0.013
UGUGAG	1.894 ± 0.015	1.588 ± 0.011
GAUCAG	1.92 ± 0.05	1.72 ± 0.016
AGCCUC	2.01 ± 0.082	1.959 ± 0.019
GAUACU	1.94 ± 0.069	1.87 ± 0.029
GACCAU	1.932 ± 0.0042	1.838 ± 0.0066
UCGACA	1.93 ± 0.023	1.72 ± 0.063
UCGACC	1.976 ± 0.015	1.955 ± 0.011
AGGACA	1.89 ± 0.066	1.71 ± 0.042
UUUUUC	2.02 ± 0.043	1.99 ± 0.02
GCUUUU	1.96 ± 0.011	1.831 ± 0.01
CCGGGU	2.04 ± 0.054	1.93 ± 0.15

Variant	normalized RNA/DNA level with ligand (log10) (hypoxanthine [1])	normalized RNA/DNA level without ligand (log10) (hypoxanthine [2])
UAUCUG	1.904 ± 0.0025	1.708 ± 0.0037
GUCCUG	1.88 ± 0.024	1.52 ± 0.022
UUAUUC	1.96 ± 0.045	1.936 ± 0.016
UUCUGC	1.998 ± 0.019	1.92 ± 0.049
CCAUCA	1.97 ± 0.056	2.01 ± 0.049
CCCGAC	1.959 ± 0.0051	1.84 ± 0.033
CCCGAA	1.9 ± 0.085	1.76 ± 0.033
GACGCG	1.872 ± 0.0041	1.51 ± 0.11
UUCACC	1.984 ± 0.015	2 ± 0.05
AUACAU	1.91 ± 0.03	1.794 ± 0.017
AGCUUA	1.91 ± 0.057	1.85 ± 0.0089
CUCAUG	1.96 ± 0.042	1.91 ± 0.024
ACAUAC	1.94 ± 0.034	1.823 ± 0.015
CCAGGA	1.97 ± 0.033	1.83 ± 0.022
UGGUCU	1.91 ± 0.028	1.91 ± 0.025
AUAUUA	1.868 ± 0.0053	1.82 ± 0.028
CGCGAU	1.904 ± 0.0019	1.79 ± 0.036
CGCUCC	1.956 ± 0.013	1.93 ± 0.027
GCUGGU	1.96 ± 0.034	1.824 ± 0.013
CGUUCC	1.98 ± 0.032	1.913 ± 0.017
CGUUCU	1.97 ± 0.046	1.843 ± 0.012
CAUCUA	2.01 ± 0.12	1.85 ± 0.055
GAAGCC	1.948 ± 0.016	1.85 ± 0.041
